Measurements from US20240084003A1 (SIMCERE ZAIMING PHARMACEUTICAL, published 2024).
Where two headings read alike, the source gives them in different places.

Columns and labels:
[1] = molecular target: T1, monkey CD22 on HEK293T-monkey CD22 cells (monkey); test: FACS, HEK293T-monkey CD22 cells, EC50 column
T1 construct: full-length entry expressed on stably transfected HEK293T cells
T1 chain: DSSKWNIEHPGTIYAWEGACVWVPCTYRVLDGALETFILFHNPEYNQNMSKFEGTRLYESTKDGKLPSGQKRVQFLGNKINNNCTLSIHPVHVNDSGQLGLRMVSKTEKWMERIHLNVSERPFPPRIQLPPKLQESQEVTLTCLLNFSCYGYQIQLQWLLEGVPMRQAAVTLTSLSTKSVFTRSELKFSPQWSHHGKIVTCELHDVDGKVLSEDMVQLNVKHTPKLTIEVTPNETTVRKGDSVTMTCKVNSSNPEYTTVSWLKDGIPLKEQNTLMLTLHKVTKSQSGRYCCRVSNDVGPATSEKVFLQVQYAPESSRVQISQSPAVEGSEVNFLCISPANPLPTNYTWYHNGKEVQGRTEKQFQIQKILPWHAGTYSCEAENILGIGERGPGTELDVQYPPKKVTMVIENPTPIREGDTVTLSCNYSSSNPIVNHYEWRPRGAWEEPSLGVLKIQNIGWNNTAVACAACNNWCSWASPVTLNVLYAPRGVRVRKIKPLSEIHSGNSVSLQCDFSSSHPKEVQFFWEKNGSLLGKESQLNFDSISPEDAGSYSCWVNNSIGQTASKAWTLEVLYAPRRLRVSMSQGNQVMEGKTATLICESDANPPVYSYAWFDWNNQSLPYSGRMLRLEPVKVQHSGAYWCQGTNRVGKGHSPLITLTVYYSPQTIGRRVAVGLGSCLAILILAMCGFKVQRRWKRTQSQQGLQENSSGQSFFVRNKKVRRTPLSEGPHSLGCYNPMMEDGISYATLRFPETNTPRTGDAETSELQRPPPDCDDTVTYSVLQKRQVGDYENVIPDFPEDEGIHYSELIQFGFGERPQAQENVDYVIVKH
Protocol: (§1) For suspension cell Raji, the medium supernatant was directly centrifuged and discarded, and the cell pellet was washed 2 times with PBS. After counting the cells in the previous step, the cell pellet was resuspended with [PBS+2% (w/w) BSA] blocking solution to 2×10⁶ cells/ml, and added to a 96-well FACS reaction plate at 50 μl/well, and then the chimeric antibody test sample was added at 50 μl/well, and incubated on ice for 2 hours. The mixture was centrifuged and washed 3 times with PBS buffer, Alexa Flour 488-labeled secondary antibody (purchased from Invitrogen, catalog number: A-11013) was added at 50 μl/well, and incubated on ice for 1 hour. The obtained mixture was centrifuged and washed 5 times with PBS, and FACS (FACS Canto™, purchased from BD Company) was used for detection and result analysis. Data analysis was performed by software (CellQuest) to obtain the mean fluorescence density (MFI)of the cells. And then software (GraphPad Prism8) was used for analysis, data fitting, and EC50 value calculation. […] The same method was used to detect the binding of the chimeric antibodies to endogenous CD22-negative cell MoLT4 cells (purchased from ATCC, CRL-1582) and CHO-K1 cells.
(§2) HEK293T-monkey CD22 cells were subjected to FACS detection and data analysis according to the method in Example 5.2.

[2] = molecular target: T2, monkey CD22 protein (ACROBiosystems, catalog number SI2-R52Ha) (monkey, UniProt F6W485 20-688); test: ELISA, coated monkey CD22 protein, antibody 0.01 nM
T2 construct: commercial protein; also called monkey CD22-ECD; monkey CD22-ECD-His
T2 sequence: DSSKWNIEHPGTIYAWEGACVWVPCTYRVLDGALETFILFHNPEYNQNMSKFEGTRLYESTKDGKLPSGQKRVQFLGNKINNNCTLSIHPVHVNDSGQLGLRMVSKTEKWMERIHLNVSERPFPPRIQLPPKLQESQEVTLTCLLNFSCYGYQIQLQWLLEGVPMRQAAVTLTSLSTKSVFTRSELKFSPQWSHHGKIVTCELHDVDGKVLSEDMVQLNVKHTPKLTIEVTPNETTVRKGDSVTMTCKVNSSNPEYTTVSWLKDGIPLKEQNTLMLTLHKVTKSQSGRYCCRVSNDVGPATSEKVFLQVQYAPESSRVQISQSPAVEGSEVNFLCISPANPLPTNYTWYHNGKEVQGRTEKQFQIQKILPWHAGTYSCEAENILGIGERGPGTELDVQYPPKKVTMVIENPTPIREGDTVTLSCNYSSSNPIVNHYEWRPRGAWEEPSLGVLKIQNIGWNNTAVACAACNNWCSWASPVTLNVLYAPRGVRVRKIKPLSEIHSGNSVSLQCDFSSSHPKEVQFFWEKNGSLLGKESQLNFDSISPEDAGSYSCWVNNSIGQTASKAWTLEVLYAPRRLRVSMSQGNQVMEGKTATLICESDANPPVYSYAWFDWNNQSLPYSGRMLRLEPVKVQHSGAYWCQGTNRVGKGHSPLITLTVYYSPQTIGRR
Protocol: (§3) In order to detect the binding activity of CD22 human-murine chimeric antibodies to CD22 protein, the purified human CD22-ECD-His protein obtained in Example 2 was diluted with PBS to a final concentration of 2 μg/mL, and then added to 96-well ELISA plate at 100 μl/well. The plate was sealed with plastic film and incubated overnight at 4° C., the plate was washed 2 times with PBS the next day, and then a blocking solution [PBS+2% (w/w) BSA] was added for blocking at room temperature for 2 hours. […] After incubation at 37° C. for 2 hours, the plate was washed 3 times with PBS. HRP (horseradish peroxidase)-labeled secondary antibody (purchased from Sigma, catalog number: A0170) was added, and incubated at 37° C. for 2 hours, and the plate was washed 5 times with PBS. TMB substrate was added at 50 μl/well, and incubated at room temperature for 30 minutes, then a stop solution (1.0 N HCl) was added at 50 μl/well.
(§4) In order to detect the species cross-binding activity of the chimeric antibodies, an ELISA plate was coated with commercial murine CD22 protein (ACROBiosystems, catalog number: SI2-M52Ha) and monkey CD22 protein (ACROBiosystems, catalog number: SI2-R52Ha), respectively, and the ELISA detection was performed according to the method in Example 5.1.

[3] = molecular target: T2, monkey CD22 protein (ACROBiosystems, …); test: ELISA, coated monkey CD22 protein, antibody 0.00001 nM
Protocol: as §3, §4

[4] = molecular target: T2, monkey CD22 protein (ACROBiosystems, …); test: ELISA, coated monkey CD22 protein, antibody 0.1 nM
Protocol: as §3, §4

[5] = molecular target: T2, monkey CD22 protein (ACROBiosystems, …); test: ELISA, coated monkey CD22 protein, antibody 100 nM
Protocol: as §3, §4

[6] = molecular target: T2, monkey CD22 protein (ACROBiosystems, …); test: ELISA, coated monkey CD22 protein, antibody 10 nM
Protocol: as §3, §4

[7] = molecular target: T1, monkey CD22 on HEK293T-monkey CD22 cells; test: FACS, HEK293T-monkey CD22 cells
Protocol: as §1, §2

[8] = molecular target: T1, monkey CD22 on HEK293T-monkey CD22 cells; test: FACS, HEK293T-monkey CD22 cells
Protocol: as §1, §2

[9] = molecular target: T2, monkey CD22 protein (ACROBiosystems, …); test: ELISA, coated monkey CD22 protein, antibody 0.0001 nM
Protocol: as §3, §4

[10] = molecular target: T2, monkey CD22 protein (ACROBiosystems, …); test: ELISA, coated monkey CD22 protein, antibody 0.001 nM
Protocol: as §3, §4

binding result [1]: no binding
OD450 [2]: 0.07 OD450
OD450 [3]: 0.07 OD450
OD450 [4]: 0.07 OD450
OD450 [5]: 0.12 OD450
OD450 [6]: 0.09 OD450
Maximum mean fluorescence intensity [7]: 104 MFI
Maximum mean fluorescence intensity [8]: 49 MFI
OD450 [9]: 0.07 OD450
OD450 [10]: 0.06 OD450
B1: m971-hIgG1 (antibody, V domains shown)
VH: QVQLQQSGPGLVKPSQTLSLTCAISGDSVSSNSAAWNWIRQSPSRGLEWLGRTYYRSKWYNDYAVSVKSRITINPDTSKNQFSLQLNSVTPEDTAVYYCAREVTGDLEDAFDIWGQGTMVTVSS
VL: DIQMTQSPSSLSASVGDRVTITCRASQTIWSYLNWYQQRPGKAPNLLIYAASSLQSGVPSRFSGRGSGTDFTLTISSLQAEDFATYYCQQSYSIPQTFGQGTKLEIKR
notes: control anti-CD22 antibody; variable regions from US 8,591,889 on human IgG1 constant regions
